B1: PTPLAD1 (parent)
chain: YSFYMLTCIDMDWKVLTWLRYTLW
B2: MATN2 (parent)
chain: FSLKTFKRKSEVERAVKRMRHLST

Variants of: B1
Assay: protein stability index of a GFP-peptide fusion (GPS, HEK-293T) (PSI 1-6); higher = more stable
Details: c terminus: a fixed tail appended
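Also: lentivirally expressed fusions sorted by FACS into six bins by GFP to DsRed ratio, PSI derived from sequencing read proportions per bin multiplied by bin number.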

Protein stability index: each site, then its substitutions
S2: V 1.58, R 2.84, H 2.1, D 1.35, I 2.41, K 5.08, M 2.26, C 1.93, P 2.62, Y 2.99, Q 1.97, A 2.3, W 2.13, T 1.56
Y1: A 2.82, S 2.07, M 3.57, V 4.18, T 2.2, P 1.7, N 2.57, D 1.5, H 2.28, Q 3.61, W 3.32, C 2.62, I 3.26, L 1.47, R 1.4, K 2.1
L6: Q 1.31, A 2.21, P 2.45, H 3.22, F 2.33, N 2.48, K 1.28, D 2.56, T 2.85
F3: S 2.61, N 1.46, T 1.68, M 3.14, H 1.93, A 2.37, G 2.24, L 1.03, C 2.18, Y 3.36, W 2.37, E 2.31, D 2, K 1.69, Q 3.31, I 3.74, P 2.51
Y4: N 3.92, M 2.53, K 2.05, P 2.72, L 3.13, H 3.11, A 2.33, R 2.28, F 2.53, E 1.77, V 2.36, C 4.29, S 1.77, W 2.12, G 2.99, T 1.86, D 1.99, Q 1.98, I 3.63
M5: F 3.81, V 2.62, H 2.54, Y 3.07, I 3.07, K 2.41, Q 2.64, P 2.17, S 1.4, G 2.15, D 2.49, R 2.7, N 2.21

Variants of: B2
Assay: as above
Details: c terminus: a fixed tail appended

Protein stability index of substitutions, site by site:
A15: S 2.33, Y 1.59, R 3.91, V 2.27, G 2.35, P 2.43, Q 2.58, W 2.17, D 2.89, T 2.78, K 2.7, N 2.81, F 2.94, E 2.73, M 2.2, I 1.38, C 2.27, H 2.87
K17: P 3.24, Y 1.76, A 2.26, I 2.04, T 2.34, M 2.53, H 3.01, C 2.35, F 1.75, D 2.92, R 1.87, V 2.69, Q 2.13, N 2.5, S 2.65, E 2.38, L 1.92
M19: D 2.76, H 2.89, Y 2.5, I 4.04, N 2.68, A 3.21, Q 2.57, E 3.34, S 2.84, T 2.84, V 2.21, K 3.67, R 4.54, W 2.9, F 2.18, L 2.31, P 2.14, C 2.61
E13: Q 2.9, S 2.34, M 2.25, P 3.15, I 2.29, L 2.28, F 2.08, G 1.83, H 2.37, N 2.83, Y 2.94, W 1.4, V 2.11, K 2.69, A 2, R 2.22, T 2.41, C 1.83, D 2.52
H21: R 2.41, P 2.58, A 2.77, E 2.28, Y 2.84, V 1.3, D 2.76, Q 1.87, I 1.76, S 1.68, L 1.46, T 2.72, N 2.4, G 1.75, F 1.99, K 3.76, C 2.28
S23: P 2.25, I 2.8, E 2, V 1.28, A 1.81, W 1.72, Y 2.3, C 1.42, K 2.64, G 2.1, D 3.11, R 2.35, T 1.89, N 2.53
T24: H 2.57, Y 2.23, P 2.35, I 2.08, D 2.44, N 3, G 3.01, E 2.67, A 2.72, Q 1.55, W 1.55, K 3.38, S 2.53, V 1.62, L 2.4
R14: L 1.96, N 2.46, D 2.73, K 3.11, H 2.28, V 2.75, M 3.08, G 2.15, W 2.25, C 1.83, P 2.49, T 2.87, S 2.49, E 2.49, F 2.65
E11: L 2.56, G 2.46, K 3.17, P 2.17, T 2.99, V 2.38, M 2.8, N 2.82, I 1.96, D 2.39, S 1.98, Y 2.09, H 2.29, F 2.01, Q 2.44, R 3.21, C 1.76, A 2.52
L22: C 2.79, E 3.18, R 2.68, V 2.58, Y 1.93, G 2.79, A 2.81, S 1.92, F 2.1, T 3.17, Q 2.62, H 2.59, D 2.96, I 2.36, N 2.47, K 3.09, M 2.57
S10: V 3.04, Q 2.26, R 2.46, Y 2.3, T 2.73, W 2.88
R20: P 3.21, H 2, C 2.4, D 2.54, E 2.54, G 2.38, T 2.57, I 2.82, M 2.08, A 2.14, N 2.54, Q 2.22, K 2.59, V 1.6, L 2.81, F 1.9, W 1.24, Y 2.32, S 2.42
R18: G 2.8, V 2.34, D 2.8, Q 1.93, A 1.96, F 1.54, T 2.26, N 2.52, M 1.93, H 2.4, C 1.8, W 2.04, S 2.21, I 2.16, K 1.97, L 1.97, Y 3.03, P 2.36
V16: C 2.48, H 2.19, M 2.93, T 3.1, F 3.4, Q 2.92, D 2.15, N 2.47, I 2.07, L 1.51, S 2.57, E 2.43, W 1.76, R 2.48, G 2.71, A 2.82, Y 2.1, P 2.33
V12: T 2.38, Y 2.12, C 2.25, Q 3.15, M 2.11, A 2.36, E 2.34, P 2.5, H 2.54, W 1.24, L 2.56, F 1.4, N 1.87, K 3.17, G 2.91, S 2.98, R 3.19

— the supplement of paper PMC10567573
